The supplement of paper PMC10567573

B1: PLAGL1 (parent)
chain: TKEKKHQCDHCERCFYTRKDVRRH
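Further: lentivirally expressed fusions sorted by FACS into six bins by GFP to DsRed ratio, PSI derived from sequencing read proportions per bin multiplied by bin number.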

Variants of: B1
Assay: protein stability index of a GFP-peptide fusion (GPS, HEK-293T) (PSI 1-6); higher = more stable
Settings: c terminus: a fixed tail appended
With TNEKKHQCDHCERCFYTRKDVRRH the protein stability index was 3.21. Variant TAEKKHQCDHCERCFYTRKDVRRH has a protein stability index of 3.58. In the case of TYEKKHQCDHCERCFYTRKDVRRH, the protein stability index is reported as 3.21. Work on TGEKKHQCDHCERCFYTRKDVRRH yielded a protein stability index of 3.15. Work on TWEKKHQCDHCERCFYTRKDVRRH yielded a protein stability index of 3.16. For THEKKHQCDHCERCFYTRKDVRRH, the protein stability index was 3.55. In the case of TVEKKHQCDHCERCFYTRKDVRRH, the protein stability index is reported as 3.3. For TPEKKHQCDHCERCFYTRKDVRRH, the protein stability index was 3.1. For TKEQKHQCDHCERCFYTRKDVRRH, the protein stability index was 3.4. With TKERKHQCDHCERCFYTRKDVRRH the protein stability index was 3.29. TKEHKHQCDHCERCFYTRKDVRRH gave a protein stability index of 3.42. Work on TKETKHQCDHCERCFYTRKDVRRH yielded a protein stability index of 3.27. TKECKHQCDHCERCFYTRKDVRRH showed a protein stability index of 3.87. For TKENKHQCDHCERCFYTRKDVRRH, the protein stability index was 3.08. In the case of TKELKHQCDHCERCFYTRKDVRRH, the protein stability index is reported as 2.9. Variant TKEFKHQCDHCERCFYTRKDVRRH has a protein stability index of 3.21. Work on TKEEKHQCDHCERCFYTRKDVRRH yielded a protein stability index of 4.01. In the case of TKEYKHQCDHCERCFYTRKDVRRH, the protein stability index is reported as 3.03. TKEWKHQCDHCERCFYTRKDVRRH showed a protein stability index of 2.95. Work on TKEAKHQCDHCERCFYTRKDVRRH yielded a protein stability index of 3.32. Variant TKEIKHQCDHCERCFYTRKDVRRH has a protein stability index of 3.57. Work on TKEVKHQCDHCERCFYTRKDVRRH yielded a protein stability index of 3.24. With TKEMKHQCDHCERCFYTRKDVRRH the protein stability index was 3.27. Work on TKEDKHQCDHCERCFYTRKDVRRH yielded a protein stability index of 3.84. For TKEPKHQCDHCERCFYTRKDVRRH, the protein stability index was 3.33. For TKESKHQCDHCERCFYTRKDVRRH, the protein stability index was 2.93. TKEGKHQCDHCERCFYTRKDVRRH gave a protein stability index of 3.49. TKEKKHCCDHCERCFYTRKDVRRH showed a protein stability index of 3.36. Variant TKEKKHWCDHCERCFYTRKDVRRH has a protein stability index of 2.77. Work on TKEKKHACDHCERCFYTRKDVRRH yielded a protein stability index of 3.41. Variant TKEKKHKCDHCERCFYTRKDVRRH has a protein stability index of 3.8. Work on TKEKKHVCDHCERCFYTRKDVRRH yielded a protein stability index of 3.23. With TKEKKHYCDHCERCFYTRKDVRRH the protein stability index was 2.81. With TKEKKHHCDHCERCFYTRKDVRRH the protein stability index was 3.73. TKEKKHNCDHCERCFYTRKDVRRH gave a protein stability index of 3.21. TKEKKHGCDHCERCFYTRKDVRRH gave a protein stability index of 2.89. TKEKKHFCDHCERCFYTRKDVRRH showed a protein stability index of 2.91. Variant TKEKKHSCDHCERCFYTRKDVRRH has a protein stability index of 3.25. Work on TKEKKHTCDHCERCFYTRKDVRRH yielded a protein stability index of 2.74. TKEKKHECDHCERCFYTRKDVRRH showed a protein stability index of 3.31. TKEKKHICDHCERCFYTRKDVRRH gave a protein stability index of 3.32. TKEKKHRCDHCERCFYTRKDVRRH showed a protein stability index of 3.33. With TKEKKHLCDHCERCFYTRKDVRRH the protein stability index was 2.54. With TKEKKHMCDHCERCFYTRKDVRRH the protein stability index was 2.71. TKEKKHPCDHCERCFYTRKDVRRH gave a protein stability index of 2.82. In the case of TKEKKHDCDHCERCFYTRKDVRRH, the protein stability index is reported as 3.43. Work on TKEKWHQCDHCERCFYTRKDVRRH yielded a protein stability index of 3.06.
